Data: US20240376170A1 (BRIGHT PEAK THERAPEUTICS, published 2024)
Each block holds one binder with its values, some of them ahead of it. Bridges are numbered along the chain shown (N, C = ends). Primed or numbered codes have the meaning given here. [ ]: non-standard residue; d: D form. Ygp = O-(8x polyethylene glycol-amino)-tyrosine (Tyr, amino-capped PEG8); Yn3 = O-(9x polyethylene glycol-azido)-tyrosine (Tyr, azide-capped PEG9); Ygp″ = O-(8x polyethylene glycol-amino)-tyrosine; Yn3″ = O-(9x polyethylene glycol-azido)-tyrosine; hSer = N[C@@H](CCO)C(=O)O; Nle = CCCC[C@H](N)C(=O)O

Tests used:
[1] = target: T1, recombinant human IL-2 receptor beta containing a His-tag and Avi-tag (human, UniProt P14784 27-239); assay: BLI (Octet R8), receptor on SAX2 sensor; construct CMP-168, intact (no MMP2)
T1 construct: Bought; attached to the SAX2 biosensor; also called CD122; IL-2R β; not shown: His-tag and Avi-tag
T1 sequence (looked up): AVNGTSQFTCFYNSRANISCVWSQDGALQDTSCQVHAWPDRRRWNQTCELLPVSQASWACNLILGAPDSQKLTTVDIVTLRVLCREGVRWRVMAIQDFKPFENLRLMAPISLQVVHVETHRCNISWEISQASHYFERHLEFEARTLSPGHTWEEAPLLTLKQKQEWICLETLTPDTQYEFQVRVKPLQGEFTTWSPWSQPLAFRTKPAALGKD
Procedure: (§1) Bilayer interferometry (BLI) assays were used to measure the binding constants between activatable IL-2 polypeptides (and activated versions thereof) to IL-2 receptor subunits or receptor complexes. BLI assays were conducted on an Octet® R8 instrument. Assay plates were 96 well, polypropylene, F-bottom (chimney well), black microplates (Greiner Bio-one, Cat. No: 655209). The biosensors were Octet® SAX2 (Sartorius, Cat. No: 18-5136). The assay buffer was 1X Kinetic Buffer (Sartorius, Cat. no: 18-5136) or Phosphate Buffered Saline (PBS) that contained 0.02% (v: v) Tween 20 (Polysorbate 20) and 0.1% (w/v) bovine serum albumin (BSA). The sensor was regenerated between measurements in 10 mM glycine pH 2.7 buffer.
(§2) Sensor attached receptors were either recombinant human IL-2 receptor beta containing a His-tag and Avi-tag™ (R&D Systems™) or an Avi-tag™ Fc with human IL-2R beta and IL-2R gamma attached (Acrobiosystems Cat. no: ACRB-ILG-H₈₂F3-25UG). Receptors were reconstituted from lyophilized powder to 500 μg/ml in PBS. Analytes were diluted in Kinetic buffer to 300 nM, then serially diluted to lower concentrations.

[2] = target: T2, Avi-tag Fc with human IL-2R beta and IL-2R gamma attached (Acrobiosystems ACRB-ILG-H82F3-25UG) (human, UniProt P14784 27-239; P31785 23-262); assay: BLI (Octet R8), receptor on SAX2 sensor
T2 construct: Bought; attached to the SAX2 biosensor; also called CD122 CD132; IL-2R βγ; not shown: Fc and Avi-tag
T2 sequence (looked up) 1: T1 sequence (looked up)
T2 sequence (looked up) 2: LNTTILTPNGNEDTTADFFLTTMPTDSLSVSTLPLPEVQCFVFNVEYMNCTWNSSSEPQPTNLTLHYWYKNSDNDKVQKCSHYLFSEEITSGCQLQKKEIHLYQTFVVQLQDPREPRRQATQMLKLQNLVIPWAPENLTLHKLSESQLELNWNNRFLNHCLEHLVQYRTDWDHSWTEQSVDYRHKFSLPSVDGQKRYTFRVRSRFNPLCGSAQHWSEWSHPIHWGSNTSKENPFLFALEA
Procedure: as §1, §2

[3] = target: T1, recombinant human IL-2 receptor beta …; assay: BLI (Octet R8), receptor on SAX2 sensor; CMP-168 treated with MMP2 (cleaved)
Procedure: as §1, §2

[4] = target: T1, recombinant human IL-2 receptor beta …; assay: BLI (Octet R8), receptor on SAX2 sensor
Procedure: as §1, §2

[5] = target: T1, recombinant human IL-2 receptor beta …; assay: BLI (Octet R8), receptor on SAX2 sensor; construct CMP-165, intact (no MMP2)
Procedure: as §1, §2

[6] = target: T2, Avi-tag Fc with human IL-2R beta and …; assay: as above
Procedure: as §1, §2

[7] = target: T1, recombinant human IL-2 receptor beta …; assay: BLI (Octet R8), receptor on SAX2 sensor; CMP-166 treated with MMP2 (cleaved)
Procedure: as §1, §2

[8] = target: T2, Avi-tag Fc with human IL-2R beta and …; assay: as above
Procedure: as §1, §2

[9] = target: T1, recombinant human IL-2 receptor beta …; assay: BLI (Octet R8), receptor on SAX2 sensor; CMP-165 treated with MMP2 (cleaved)
Procedure: as §1, §2

[10] = target: T2, Avi-tag Fc with human IL-2R beta and …; assay: as above
Procedure: as §1, §2

[11] = target: T1, recombinant human IL-2 receptor beta …; assay: BLI (Octet R8), receptor on SAX2 sensor; construct CMP-166, intact (no MMP2)
Procedure: as §1, §2

[12] = target: T2, Avi-tag Fc with human IL-2R beta and …; assay: as above
Procedure: as §1, §2

B3: CMP-165 (ligand)
chain: APTSSSTKKTQLQLEHLLLDLQKILNGINNYKNPKLTR[Nle]L[hSer][Yn3]KF[Ygp][Nle]PKKATELKHLQCLEEELKPLEEVL[hSer]LAQSKNFHLRPRDLISNINVIVLELKGSETTF[hSer]CEYADETATIVEFLNRWITFSQSIISTLT
modifications: bridge N-23; not fully specified (bridges); ends not checked; also: sequence of the cleavable peptide in the bridge not given here
Kd [5]: 44.2 µM | Kd [6]: 26.1 pM | koff [4]: 0.633 s⁻¹

B4: CMP-166, MMP2 cleaved (ligand)
chain: APTSSSTKKTQLQLEHLLLDLQKILNGINNYKNPKLTR[Nle]L[hSer][Yn3]KF[Ygp][Nle]PKKATELKHLQCLEEELKPLEEVL[hSer]LAQSKNFHLRPRDLISNINVIVLELKGSETTF[hSer]CEYADETATIVEFLNRWITFSQSIISTLT
modifications: also: glutaryl-PEG4-peptide bridge Ala1 to Lys23 cut by MMP2, site not given here, ring opened
notes: Tested after MMP2 treatment
Kd [7]: 0.794 µM | Kd [8]: 0.00121 µM | koff [4]: 0.225 s⁻¹ | kon [4]: 283000 M⁻¹ s⁻¹ | koff [2]: 0.000684 s⁻¹ | kon [2]: 567000 M⁻¹ s⁻¹

B5: CMP-165, MMP2 cleaved (ligand)
chain: APTSSSTKKTQLQLEHLLLDLQKILNGINNYKNPKLTR[Nle]L[hSer][Yn3]KF[Ygp][Nle]PKKATELKHLQCLEEELKPLEEVL[hSer]LAQSKNFHLRPRDLISNINVIVLELKGSETTF[hSer]CEYADETATIVEFLNRWITFSQSIISTLT
modifications: also: glutaryl-peptide bridge Ala1 to Lys23 cut by MMP2, site not given here, ring opened
notes: Tested after MMP2 treatment
Kd [9]: 1.11 µM | Kd [10]: 0.00187 µM | koff [4]: 0.237 s⁻¹ | kon [4]: 213000 M⁻¹ s⁻¹ | koff [2]: 0.00114 s⁻¹ | kon [2]: 608000 M⁻¹ s⁻¹

B6: CMP-166 (ligand)
chain: APTSSSTKKTQLQLEHLLLDLQKILNGINNYKNPKLTR[Nle]L[hSer][Yn3]KF[Ygp][Nle]PKKATELKHLQCLEEELKPLEEVL[hSer]LAQSKNFHLRPRDLISNINVIVLELKGSETTF[hSer]CEYADETATIVEFLNRWITFSQSIISTLT
modifications: bridge N-23; not fully specified (bridges); ends not checked; also: sequence of the cleavable peptide in the bridge not given here
Kd [11]: 0.614 µM | Kd [12]: 0.0161 µM | koff [4]: 0.613 s⁻¹

Next, values leading:

Kd [1]: 25.1 µM | koff [2]: 0.0022 s⁻¹
B1: CMP-168 (ligand)
chain: APTSSSTKKTQLQLEHLLLDLQEILNGINNYKNPKLTR[Nle]L[hSer][Yn3″]KF[Ygp″][Nle]PKKATELKHLQCLEEELKPLEEVL[hSer]LAQSKNFHLRPRDLISNINVIVLELKGSETTF[hSer]CEYADETATIVEFLNRWITFSQSIISTLT
modifications: bridge 9-23; not fully specified (bridges); ends not checked

Kd [3]: 1370 µM | koff [4]: 1.08 s⁻¹ | kon [4]: 789 M⁻¹ s⁻¹ | Kd [2]: 0.00227 µM | koff [2]: 0.00164 s⁻¹ | kon [2]: 602000 M⁻¹ s⁻¹
B2: CMP-168, MMP2 cleaved (ligand)
chain: APTSSSTKKTQLQLEHLLLDLQEILNGINNYKNPKLTR[Nle]L[hSer][Yn3″]KF[Ygp″][Nle]PKKATELKHLQCLEEELKPLEEVL[hSer]LAQSKNFHLRPRDLISNINVIVLELKGSETTF[hSer]CEYADETATIVEFLNRWITFSQSIISTLT
modifications: ends and bridges not checked; also: MMP2 cleaved, ring opened, cut site and remnants not given here
notes: Tested after MMP2 treatment
